This test addresses T1, recombinant human IL-17A (human, UniProt Q16552 24-155).
T1 construct: also called IL-17A antigen
In words: SPR, Biacore 3000, human IL-17A coupled to CM5 chip, antibody injected. On the procedure: The instrument utilizes an optical surface plasmon resonance technique to detect association and dissociation between a molecule coupled on a sensor chip and an analyte. CM5 chips (GE Healthcare, BR-1000-12) were used. Brief experiment procedure was as follow: human IL-17A was dissolved in sodium acetate buffer (pH 5.0) and coupled to CM chip by injecting at a speed of 10 μL/min. 1 M ethanolamine was injected at a speed of 10 μL/min for blocking. […] 10 mM glycine solution (pH 2.0) was used for regeneration. Association rate constants and dissociation rate constants were analyzed and calculated by Biacore 3000 control software.
In general terms: SPR reads the build-up and loss of mass on a sensor chip optically.

Among the data in US20190256588A1 (BEIJING HANMI PHARM, published 2019) are Kd, koff and kon values, retold here.

T1 sequence (Q16552 24-155 limits assumed): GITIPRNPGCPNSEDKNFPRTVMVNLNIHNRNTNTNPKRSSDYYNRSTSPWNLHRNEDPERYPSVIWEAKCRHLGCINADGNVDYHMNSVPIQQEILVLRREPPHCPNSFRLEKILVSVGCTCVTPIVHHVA

B1: anti-human IL-17A chimeric monoclonal antibody (antibody, human IgG1, kappa, V domains shown)
VH: DVQVQESGPGLVKPSQSLSLTCTVTGNSITSYYAWNWIRQFPGNKLEWMGYITYSGTTSYNPSLKSRISITRDTSKNQFFLQLNSVTTEDTATYYCAREEYDDIYAVDYWGQGTSVTVSS
VL: IIVMTQTPLSLPVSLGDQASISCRSSQSLVHSNGNTYLHWYLQKPGQSPKLLIYKVYNRFSGVPDRFSGSGSGTDFTLKISRVEAEDLGVYFCSQSTHFPTFGGGTKLEIKR
notes: expressed in 293F cells; also called Anti-human IL-17A Chimeric Antibody; chimeric anti-human IL-17A monoclonal antibody
Turning to B1, the Kd – broadly, the free concentration of one partner at which half of the binding sites on the other are occupied at equilibrium, for simple one-to-one binding – came out at 0.03 nM; the off-rate constant (koff) (in general, the first-order rate constant of dissociation) is 1.49e-06 s⁻¹; the kon (as a rule, the rate constant with which the complex forms) was 54100 M⁻¹ s⁻¹.
